Measurements reported in paper doi:10.1101/2020.08.02.233536.

Legend:
[1] = target: His-tagged SARS-CoV RBD protein (binding studies) (SARS-CoV) (UniProt P59594); assay: BLI
[2] = target: His-tagged SARS-CoV-2 RBD protein (binding studies) (SARS-CoV-2) (UniProt P0DTC2); assay: BLI

Substance	Kd [1]	Kd [2]
COVA1–16 IgG1 antibody	125 nM	0.2 nM
COVA1–16 Fab, His-tagged	405 nM	46 nM
